Source: publication PMC9974998, “Structural mechanism for inhibition of PP2A-B56α and oncogenicity by CIP2A” (Nature Communications, 2023)
No end group written: not given here. *: point of attachment. Biotin = O=C1N[C@H]2[C@H](CS[C@H]2CCCCC(=O)*)N1

B1: CIP2A peptide (aa18-40) (peptide)
peptide: Biotin-KAVKSEANATQLLRHLEVISGQK
notes: CIP2A, human, head domain residues 18-40; also called CIP2A N-terminal head peptide; CIP2A head peptide; source: synthetic peptide (Fmoc solid phase, HPLC purified, 87% purity)
B2: B56α (recombinant, WT) (natural protein)
chain: not shown
notes: PP2A regulatory subunit B56α; pGEX-B56α WT; also called B56α WT; source: E. coli BL21, purified (glutathione agarose, GST removed with AcTEV); not shown: GST, N-terminal, cleaved
B3: CIP2A(1-330) as used for XL-MS (domain or fragment)
chain: not shown
notes: CIP2A, human, residues 1-330; also called CIP2A(1-330) fragment; source: E. coli BL21, purified (glutathione agarose), dialysed into PBS pH 8, 2 mM DTT, 10% glycerol
B4: B56α Y215Q (natural protein)
chain: not shown
notes: PP2A regulatory subunit B56α with Y215Q; source: purified recombinant
B5: GST-CIP2A(1-330) A24E (domain or fragment)
chain: not shown
notes: CIP2A, human, residues 1-330, A24E; also called A24E mutant; source: E. coli BL21, purified (glutathione agarose); not shown: GST, N-terminal, kept
B6: B56α K181A/K217A/K227A (recombinant) (natural protein)
chain: not shown
notes: PP2A regulatory subunit B56α with K181A, K217A and K227A; also called B56α triple mutant

Assays:
Settings in all cases: both partners purified
B56α (recombinant, WT) [1] = molecular target: B2; experiment: pull-down; competition: B56α pre-incubated with CIP2A peptide (aa.18-40) 30 min 37 °C, then GST-BubR1(647-720) 1 h 37 °C, 10 pmol each, glutathione bead pull-down, Western blot
CIP2A(1-560)V5 His = molecular target: T1, CIP2A(1-560)V5 His (human, UniProt Q8TCG1 1-560); experiment: pull-down; competition: GST-BubR1(647-720), B56α and CIP2A(1-560)V5, 10 pmol each, glutathione bead pull-down, B56α on BubR1 by Western blot
T1 construct: CIP2A, human, residues 1-560; also called V5-tagged recombinant CIP2A(1-560); source: recombinant

[2] = molecular target: T2, CIP2A(1-560) as used for XL-MS (human, UniProt Q8TCG1 1-560); experiment: cross-linking; XL-MS: CIP2A and B56α mixed 1:2, RT 60 min, about 0.5 mg/mL; DSS 100 or 500 µM (PBS pH 8.0, 2 mM DTT, 10% glycerol, 30 min 37 °C) or PDH + DMTMM (pH 7, 45 min 37 °C); LC-MS/MS, xQuest
T2 construct: CIP2A, human, residues 1-560; source: E. coli BL21, purified (glutathione agarose), dialysed into PBS pH 8, 2 mM DTT, 10% glycerol

GST-CIP2A(1-560) K8A = molecular target: T3, GST-CIP2A(1-560) K8A (human, UniProt Q8TCG1 1-560, K8A); experiment: pull-down; GST pull-down on glutathione agarose; 10 pmol of each protein in 150 µL 50 mM Tris HCl pH 7.5, 150 mM NaCl, 2 mM DTT, 0.2% Igepal, 10% glycerol, 1 h 37 °C; Western blot
T3 construct: CIP2A, human, residues 1-560, K8A; also called CIP2A(1-560) K8A mutant; source: E. coli BL21, purified (glutathione agarose); not shown: GST, N-terminal, kept

GST-CIP2A(1-560) [3] = molecular target: T4, GST-CIP2A(1-560) (human, UniProt Q8TCG1 1-560); experiment: pull-down; GST-CIP2A incubated with the pre-assembled PP2A-B56α holoenzyme (A-B56α-PP2Ac), glutathione beads; Coomassie gel and Western blot; CIP2A also titrated against equal molar amounts of PP2A proteins
T4 construct: CIP2A, human, residues 1-560; pGEX vector, thrombin-cleavable N-terminal GST; also called GST-tagged CIP2A(1-560) WT; GST-fused CIP2A(1-560); source: E. coli BL21, purified (glutathione agarose); not shown: GST, N-terminal, kept

B56α (recombinant, WT) [4] = molecular target: B2; experiment: cross-linking; XL-MS: CIP2A and B56α mixed 1:2, RT 60 min, about 0.5 mg/mL; DSS 100 or 500 µM (PBS pH 8.0, 2 mM DTT, 10% glycerol, 30 min 37 °C) or PDH + DMTMM (pH 7, 45 min 37 °C); LC-MS/MS, xQuest
GST-CIP2A(1-560) [5] = molecular target: T4, GST-CIP2A(1-560); experiment: pull-down; GST pull-down on glutathione agarose; 10 pmol of each protein in 150 µL 50 mM Tris HCl pH 7.5, 150 mM NaCl, 2 mM DTT, 0.2% Igepal, 10% glycerol, 1 h 37 °C; Western blot
B56α (recombinant, WT) [6] = molecular target: B2; experiment: as above

Binder: B1
- binding result (B56α (recombinant, WT) [1]): binds

Binder: B2
- binding result (CIP2A(1-560)V5 His): binds
- binding result [2]: binds
- binding result (GST-CIP2A(1-560) K8A): binds
- binding result (GST-CIP2A(1-560) [3]): binds

Binder: B3
- binding result (B56α (recombinant, WT) [4]): binds

Binder: B4
- binding result (GST-CIP2A(1-560) [5]): binds

Binder: B5
- binding result (B56α (recombinant, WT) [6]): binds

Binder: B6
- binding result (GST-CIP2A(1-560) [5]): binds
